Reference: patent US7399833 (dated 2008)
Values joined by “and” are separate entries in the source; they are usually repeats but may differ in a detail not shown here. Equal entries are not always repeated.

B1: CHO-derived MGDF 1-153 (ligand)
chain: SPAPPACDLRVLSKLLRDSHVLHSRLSQCPEVHPLPTPVLLPAVDFSLGEWKTQMEETKAQDILGAVTLLLEGVMAARGQLGPTCLSSLLGQLSGQVRLLLGALQSLLGTQLPPQGRTTAHKDPNAIFLSFQHLLRGKVRFLMLVGGSTLCVR
modifications: CHO-expressed material carries O-linked carbohydrate, which the letters do not show.
notes: see the note on m1; also called r-HuMGDF 1-153 (CHO)
B2: CHO-derived MGDF 1-163 (ligand)
chain: SPAPPACDLRVLSKLLRDSHVLHSRLSQCPEVHPLPTPVLLPAVDFSLGEWKTQMEETKAQDILGAVTLLLEGVMAARGQLGPTCLSSLLGQLSGQVRLLLGALQSLLGTQLPPQGRTTAHKDPNAIFLSFQHLLRGKVRFLMLVGGSTLCVRRAPPTTAVPS
modifications: CHO-expressed material carries O-linked carbohydrate, which the letters do not show.
notes: see the note on m1; also called r-HuMGDF 1-163 (CHO)

The molecules below were run against full length human Mpl receptor on 32D-MPL cells (human) (UniProt P40238) (assay: cell-based or functional assay).
Molecule [Asn25] MGDF 1-174 (ligand) has an In Vitro Activity (units/ml), 32D-MPL cell proliferation of 636 units/ml and a Specific Activity (units/ng), 32D-MPL cell proliferation / MGDF ELISA of 344 units/ng.
Molecule “[Asn30, Thr32, Asn120, Thr122] MGDF 1-174 (ligand)” has an In Vitro Activity (units/ml), 32D-MPL cell proliferation of 6420 units/ml and a Specific Activity (units/ng), 32D-MPL cell proliferation / MGDF ELISA of 247 units/ng.
In the case of [Asn30, Thr32] MGDF 1-174 (ligand), the In Vitro Activity (units/ml), 32D-MPL cell proliferation is reported as 8830 units/ml and the Specific Activity (units/ng), 32D-MPL cell proliferation / MGDF ELISA is reported as 232 units/ng.
With [Asn38, Thr40] MGDF 1-174 (ligand) the In Vitro Activity (units/ml), 32D-MPL cell proliferation was less than 10 units/ml and the Specific Activity (units/ng), 32D-MPL cell proliferation / MGDF ELISA was less than 8 units/ng.
[Asn53, Thr55] MGDF 1-174 (ligand) gave an In Vitro Activity (units/ml), 32D-MPL cell proliferation of 18000 units/ml and a Specific Activity (units/ng), 32D-MPL cell proliferation / MGDF ELISA of 269 units/ng.
In the case of [Asn58, Thr60] MGDF 1-174 (ligand), the In Vitro Activity (units/ml), 32D-MPL cell proliferation is reported as 4850 units/ml and the Specific Activity (units/ng), 32D-MPL cell proliferation / MGDF ELISA is reported as 271 units/ng.
In the case of [Asn82, Ala83] MGDF 1-174 (ligand), the In Vitro Activity (units/ml), 32D-MPL cell proliferation is reported as 2660 units/ml and 3080 units/ml and the Specific Activity (units/ng), 32D-MPL cell proliferation / MGDF ELISA is reported as 443 units/ng and 655 units/ng.
Work on [Asn86] MGDF 1-174 (ligand) yielded an In Vitro Activity (units/ml), 32D-MPL cell proliferation of less than 10 units/ml and a Specific Activity (units/ng), 32D-MPL cell proliferation / MGDF ELISA of less than 22 units/ng.
Molecule [Asn92] MGDF 1-174 (ligand) has an In Vitro Activity (units/ml), 32D-MPL cell proliferation of 1970 units/ml and a Specific Activity (units/ng), 32D-MPL cell proliferation / MGDF ELISA of 188 units/ng.
In the case of [Asn120, Thr122] MGDF 1-174 (ligand), the In Vitro Activity (units/ml), 32D-MPL cell proliferation is reported as 5940 units/ml and 9690 units/ml and the Specific Activity (units/ng), 32D-MPL cell proliferation / MGDF ELISA is reported as 291 units/ng and 288 units/ng.
Work on “[Ser36, Asn38, Thr40] MGDF 1-174 (ligand)” yielded an In Vitro Activity (units/ml), 32D-MPL cell proliferation of less than 10 units/ml and a Specific Activity (units/ng), 32D-MPL cell proliferation / MGDF ELISA of less than 8 units/ng.

Each molecule was assayed against T1, Mpl-X (the soluble extra-cellular domain of the Mpl receptor) (human, UniProt P40238 26-491, coupled to CNBr activated Sepharose resin) (assay: Mpl-receptor affinity chromatography).
T1 construct: extracellular domain; also called hu-MPL-X
T1 sequence (looked up): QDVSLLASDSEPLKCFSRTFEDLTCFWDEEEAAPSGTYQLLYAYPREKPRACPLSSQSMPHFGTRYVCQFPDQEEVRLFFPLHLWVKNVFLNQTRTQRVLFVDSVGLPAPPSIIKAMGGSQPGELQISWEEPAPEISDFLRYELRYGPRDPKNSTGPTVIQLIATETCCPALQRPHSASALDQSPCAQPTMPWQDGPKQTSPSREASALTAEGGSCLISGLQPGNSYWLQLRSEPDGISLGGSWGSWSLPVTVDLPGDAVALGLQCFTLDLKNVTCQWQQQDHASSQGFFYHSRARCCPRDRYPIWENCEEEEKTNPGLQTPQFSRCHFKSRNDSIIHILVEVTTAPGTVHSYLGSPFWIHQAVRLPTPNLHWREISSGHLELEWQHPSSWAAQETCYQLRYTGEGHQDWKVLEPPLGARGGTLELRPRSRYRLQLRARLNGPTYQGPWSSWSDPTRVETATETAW
B1: binds.
B2: binds.
